Laboratory results reported in patent US20200123212A1 (3M INNOVATIVE PROPERTIES, published 2020).
Where no end group is shown, it is not given here.

Experiments:
[1] = biological target: T1, Recombinant Human Epidermal Growth Factor (EGF) (human, UniProt P01133 971-1023); experiment: SPR (Test Method A of Example 3), peptide immobilised, EGF injected
T1 construct: Bought reagent; also called EGF protein
Description: (§1) The following Test Method A was used for determining the binding affinity (KD) of SEQ ID NO: 1 for EGF and TNF-[…] Binding experiments were performed using Biacore 3000 optical biosensors equipped with research-grade CM5 sensor chips (GE Healthcare Bio-Sciences Corporation). The reagents used for the amine-coupling steps [(1-ethyl-3-(3-dimethylaminopropyl)-carbodiimide (EDC); N-hydroxysuccinimide (NHS); and ethanolamine hydrochloride-NaOH (1 M, pH 8.5)] were obtained from GE Healthcare Bio-Sciences Corporation. In order to efficiently immobilize the peptide on the sensor chips, a modified version of SEQ ID NO:1 was prepared by SPPS in which a “CK” amino acid linker sequence was added to the N-terminal end of the SEQ ID NO: 1 peptide (i.e. linker modified version of SEQ ID NO: 1 for immobilization being […]). A standard coupling protocol was employed to immobilize the linker modified version of SEQ ID NO: 1 via the lysine residue. The immobilization was performed at 25° C. using HBS-EP as the running buffer. The CM-dextran surfaces of the sensor chip flow cells were activated by a seven minute injection (20 microliters/minute) of freshly prepared 1:1 50 mM NHS: 200 mM EDC. A solution of linker modified SEQ ID NO: 1 in acetic acid (20 mM, pH 5.5) was injected to target 200 response units (RU). […]

[2] = biological target: T2, Recombinant Human Tumor Necrosis Factor-alpha (TNF-alpha) (human, UniProt P01375 77-233); experiment: SPR (Test Method A of Example 3), peptide immobilised, TNF-alpha injected
T2 construct: Bought reagent; also called TNFα
T2 sequence (P01375 77-233 limits assumed): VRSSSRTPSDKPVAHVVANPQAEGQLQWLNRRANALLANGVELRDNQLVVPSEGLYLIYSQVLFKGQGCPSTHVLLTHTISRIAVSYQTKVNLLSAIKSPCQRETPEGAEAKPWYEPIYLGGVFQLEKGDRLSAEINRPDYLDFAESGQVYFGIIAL
Description: as §1

[3] = biological target: T1, Recombinant Human Epidermal Growth …; experiment: dot blot, EGF spotted on nitrocellulose, biotinylated peptide in solution, detected with Streptavidin-HRP
Description: EGF (1 microliter of a 10 nM solution in PBS was spotted a nitrocellulose membrane (obtained from Thermo Fisher Scientific) and the membrane was dried in air for about 30 minutes. The membrane was then incubated in 15 mL of blocking buffer (3 wt. % BSA in PBS) for one hour at room temperature. The membrane was washed three times (15 minutes for each wash) with 15 mL portions of fresh PBST. The washed membrane was incubated with Biotinylated SEQ ID NO: 1 [10 mL of a 10 ng/mL solution in blocking buffer (3 wt. % BSA in PBS)] with gentle agitation for one hour. The membrane was again washed three times (15 minutes for each wash) with 15 mL portions of fresh PBST. The washed membrane was incubated with Streptavidin-HRP [1:5000 dilution in 10 mL of the blocking buffer (3 wt. % BSA in PBS)] for 30 minutes with gentle agitation. Following the incubation, the membrane was washed three times (15 minutes for each wash) with 15 mL portions of fresh PBST. The washed membrane was incubated with 10 mL of the development solution for horseradish peroxidase (TMB-Blotting Substrate Solution, Pierce-Fisher Scientific) with gentle agitation. The color development was stopped by adding water. A dark spot developed at the application site on the membrane indicating affinity of SEQ ID NO: 1 for EGF.

[4] = biological target: T1, Recombinant Human Epidermal Growth …; experiment: SPR (Biacore 3000, CM5), peptide immobilised, EGF injected at 62.5-1000 nM, 25 C, 1:1 Langmuir global fit
Description: as §1

[5] = biological target: T2, Recombinant Human Tumor Necrosis …; experiment: SPR (Biacore 3000, CM5), peptide immobilised, TNF-alpha injected at 62.5-1000 nM, 25 C, 1:1 Langmuir global fit
Description: as §1

[6] = biological target: T1, Recombinant Human Epidermal Growth …; experiment: dot blot, peptide spotted on nitrocellulose, EGF in solution, detected with anti-EGF-IgG-HRP
Description: SEQ ID NO: 1 (1 microliter of a 10 nM solution in PBS containing 3 wt. % DMSO) and SEQ ID NO: 2 (1 microliter of a 10 nM solution in PBS containing 3 wt. % DMSO) were individually spotted at separate sites on a nitrocellulose membrane (obtained from Thermo Fisher Scientific, Waltham, Mass.) and the membrane was dried in air for about 30 minutes. The membrane was then incubated in 25 mL of blocking buffer (3 wt. % BSA in PBS) for one hour at room temperature. The membrane was washed three times (15 minutes for each wash) with 15 mL portions of fresh PBST. The washed membrane was incubated with EGF protein [10 microliters of a 100 ng/mL solution in blocking buffer (3 wt. % BSA in PBS)] with gentle agitation for one hour. The membrane was again washed three times (15 minutes for each wash) with 15 mL portions of fresh PBST. The washed membrane was incubated with anti-EGF-IgG-HRP [1:5000 dilution in 10 mL of the blocking buffer (3 wt. % BSA in PBS)] for one hour with gentle agitation. Following the incubation, the membrane was washed three times (15 minutes for each wash) with 15 mL portions of fresh PBST. The washed membrane was incubated with 10 mL of the development solution for horseradish peroxidase (TMB-Blotting Substrate Solution, Pierce-Fisher Scientific, Rockford, Ill.) with gentle agitation. The color development was stopped by adding water.

T1 sequence (P01133 971-1023 limits assumed): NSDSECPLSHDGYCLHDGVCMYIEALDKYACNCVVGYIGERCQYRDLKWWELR

B1: linker modified version of SEQ ID NO: 2 (CKWFEWPYWE) (peptide)
peptide: CKWFEWPYWE
modifications: also: immobilised on CM5 sensor chip via Lys of linker, conjugated to iodoacetyl magnetic beads via Cys of linker
With B1 the Kd [1] was 0.466 µM and the Kd [2] was 340 µM.

WFEWPYWEMNVPDVWN (also: biotinylated, site not given here) [Biotinylated SEQ ID NO: 1]: binds [3].

In the case of CKWFEWPYWEMNVPDVWN (also: amine-coupled to CM5 sensor chip via Lys of CK linker) [linker modified version of SEQ ID NO: 1 (CKWFEWPYWEMNVPDVWN)], the Kd [4] is reported as 0.087 µM and the Kd [5] is reported as 75.1 µM.

Ac-WFEWPYWE-NH2 (Chemically synthesised (SPPS)) [peptide SEQ ID NO: 2 (WFEWPYWE)]: binds [6].

Ac-WFEWPYWEMNVPDVWN-NH2 (Chemically synthesised (SPPS)) [peptide SEQ ID NO: 1 (WFEWPYWEMNVPDVWN)]: binds [6].
